This passage reports self-cleavage results from the RNAGym collection of RNA variant scans (doi:10.7554/elife.80360).

B1: HDV Ribozyme (parent)
chain: GGCCGGCAUGGUCCCAGCCUCCUCGCUGGCGCCGGCUGGGCAACAUUCCGAGGGGACCGUCCCCUCGGUAAUGGCGAAUGGGACCCA

Variants of B1 are the subject of the data set. Kind of data set: self-cleavage, relative activity (ratio to wild type); higher = more cleavage; co-transcriptional.
Turning to C22G C41U, the self-cleavage worked out at 0.0656.

For the variant C22A G54U, the self-cleavage amounted to 0.317.

For C22A G54C, the self-cleavage came out at 0.281.

C22A C66U: the self-cleavage was found to be 0.302.

As to C22A C66A, the self-cleavage amounted to 0.258.

Regarding C22G G68U, the self-cleavage is 0.0583.

Regarding C22A G31A, the self-cleavage was 0.128.

For C22A G31U, the self-cleavage was 0.0594.

On to C22A G31C, for which the self-cleavage is 0.

C21U A87C: the self-cleavage came out at 0.206.

For C21U A87G, the self-cleavage is 0.165.

As for C22A G74C, the self-cleavage was determined as 0.146.

In the case of C22A G74U, the self-cleavage worked out at 0.0213.

In the case of C22A G25U, the self-cleavage amounted to 0.0755.

As for C22A G25A, the self-cleavage was found to be 0.0369.

For the variant C22A U65G, the self-cleavage worked out at 0.302.

As for C22A G38C, the self-cleavage stood at 0.0346.

Consider C22A G80U, for which the self-cleavage was determined as 0.0408.

In the case of C22A G80C, the self-cleavage was found to be 0.229.

C22G G29U: the self-cleavage was found to be 0.217.

C21U C64A: the self-cleavage was found to be 0.185.

Turning to C22A G59U, the self-cleavage came out at 0.377.

In the case of C22A G59A, the self-cleavage was 0.359.

Turning to C21U C62A, the self-cleavage came to 0.214.

For the variant C21U G28U, the self-cleavage worked out at 0.

For C21U G28A, the self-cleavage amounted to 0.0791.

With C22G G34C, the self-cleavage stood at 0.0811.

In the case of C21U G39A, the self-cleavage was found to be 0.993.

Take C21U G39U: the self-cleavage was 0.604.

For the variant C22A G34C, the self-cleavage came out at 0.0773.

As for C22A G34A, the self-cleavage worked out at 0.0573.

As to C22U A78U, the self-cleavage was found to be 0.197.

C22A G29C: the self-cleavage turned out to be 0.0449.

For the variant C22A G29A, the self-cleavage came to 0.0297.

As for C22A U47C, the self-cleavage was 0.

With C22A U47A, the self-cleavage is 0.208.

Consider C22A G35U, for which the self-cleavage worked out at 0.0791.

Regarding C22A G35A, the self-cleavage worked out at 0.0386.

Take C22A G35C: the self-cleavage was determined as 0.

For C22G G31U, the self-cleavage was 0.0361.

For the variant C22A A51U, the self-cleavage amounted to 0.332.

As for C21U G80C, the self-cleavage came out at 0.151.

For the variant C21U G34A, the self-cleavage was found to be 0.0225.

On to C21U C26U, for which the self-cleavage was found to be 0.646.

Regarding C22G U47C, the self-cleavage was determined as 0.18.

In the case of C22G U47A, the self-cleavage was determined as 0.122.

Take C22U A70G: the self-cleavage stood at 0.577.

On to C22U A70U, for which the self-cleavage came out at 0.587.

Regarding C22A A78C, the self-cleavage stood at 0.0692.

Regarding C22G G76C, the self-cleavage stood at 0.151.

Consider C22G G76U, for which the self-cleavage came out at 0.089.

For the variant C21U G82U, the self-cleavage came to 0.115.

Take C21U G82A: the self-cleavage was 0.0906.

Regarding C21U G82C, the self-cleavage was found to be 0.181.

Turning to C22A C64A, the self-cleavage turned out to be 0.107.

As to C22A C64G, the self-cleavage came out at 0.302.

For the variant C22A C64U, the self-cleavage amounted to 0.32.

Consider C22A A77U, for which the self-cleavage worked out at 0.101.

In the case of C22A A77C, the self-cleavage amounted to 0.0378.

For C22A G82U, the self-cleavage was 0.111.

With C22A G82C, the self-cleavage was 0.

C22A G82A: the self-cleavage worked out at 0.0767.

For the variant C22A C49G, the self-cleavage was determined as 0.143.

Consider C21U G50U, for which the self-cleavage came out at 0.141.

Consider C21U G50A, for which the self-cleavage came to 0.253.

Turning to C21U G50C, the self-cleavage amounted to 0.115.

In the case of C22G C86G, the self-cleavage was 0.0779.

In the case of C22G C61G, the self-cleavage is 0.104.

As for C22G C61U, the self-cleavage is 0.0723.

As for C22G G40U, the self-cleavage amounted to 0.104.

On to C22A U46C, for which the self-cleavage was found to be 0.0692.

In the case of C22A U46A, the self-cleavage came to 0.104.

Turning to C22A A70G, the self-cleavage is 0.203.

For the variant C22A A70C, the self-cleavage is 0.17.

Take C22G U37G: the self-cleavage was found to be 0.0831.

With C22G U37C, the self-cleavage was 0.136.

For the variant C22A C84G, the self-cleavage came to 0.17.

For C22A C84A, the self-cleavage turned out to be 0.0707.

For C22A C84U, the self-cleavage amounted to 0.256.

For C21U C44G, the self-cleavage amounted to 0.424.

Turning to C21U C44U, the self-cleavage was 0.62.

C21U A56C: the self-cleavage worked out at 0.289.

As for C22A C61A, the self-cleavage is 0.415.

As to C22A C61G, the self-cleavage was 0.323.

Take C22A A56U: the self-cleavage was found to be 0.323.

As to C22G C48G, the self-cleavage came to 0.0489.

For the variant C22A U37A, the self-cleavage was 0.0554.

Take C22A C86A: the self-cleavage came out at 0.448.

C22A C86G: the self-cleavage came out at 0.208.

For C22G G55U, the self-cleavage stood at 0.0382.

For the variant C22G G55A, the self-cleavage came to 0.0723.

For the variant C22G A45C, the self-cleavage was 0.0489.

With C22G A45G, the self-cleavage was determined as 0.

In the case of C22A U60C, the self-cleavage is 0.424.

For the variant C21U C36A, the self-cleavage was determined as 0.0923.

In the case of C21U C86U, the self-cleavage was 0.282.

Take C21U C48A: the self-cleavage stood at 0.302.

Take C21U C48U: the self-cleavage stood at 0.247.

With C21U C48G, the self-cleavage was determined as 0.181.

As for C21U A77C, the self-cleavage came to 0.125.

For the variant C22G G54C, the self-cleavage is 0.0277.

Turning to C22G G54A, the self-cleavage was found to be 0.101.

For the variant C21U, the self-cleavage was determined as 0.251.

Take C21U C84U: the self-cleavage is 0.0923.

C21U C84G: the self-cleavage is 0.122.

For C21U C84A, the self-cleavage came to 0.0755.

Regarding C22G C58G, the self-cleavage came to 0.

As to C22G C58U, the self-cleavage was 0.172.

Turning to C22G C58A, the self-cleavage stood at 0.

As for C22A C48U, the self-cleavage is 0.433.

With C22A C48A, the self-cleavage is 0.201.

With C22A G28C, the self-cleavage was determined as 0.

For the variant C22A G28U, the self-cleavage came to 0.106.

Consider C22A G28A, for which the self-cleavage was found to be 0.148.

For C21U U47C, the self-cleavage was 0.271.

On to C21U A78G, for which the self-cleavage was found to be 0.155.

As to C22A G40C, the self-cleavage is 0.0282.

On to C21G U65C, for which the self-cleavage stood at 0.113.

On to C22A C26A, for which the self-cleavage worked out at 0.262.

Turning to C22A C26G, the self-cleavage came to 0.119.

For C22G G73C, the self-cleavage was 0.0845.

Turning to C22G G73U, the self-cleavage was 0.

Consider C22G G73A, for which the self-cleavage was 0.0692.

For the variant C22G A43G, the self-cleavage came to 0.

Take C22G A43U: the self-cleavage stood at 0.115.

Regarding C22G A43C, the self-cleavage came to 0.0811.

For C22A U27G, the self-cleavage was 0.151.

Consider C22G C57U, for which the self-cleavage was 0.089.

As to C22G C57A, the self-cleavage came out at 0.0652.

For C22G C57G, the self-cleavage came out at 0.219.

Consider C22A A83G, for which the self-cleavage came to 0.14.

Consider C22A A83U, for which the self-cleavage is 0.0678.

Take C22A G55A: the self-cleavage came to 0.284.

On to C22G C84A, for which the self-cleavage worked out at 0.0369.

In the case of C22G C84G, the self-cleavage came out at 0.0923.

As for C22A U69A, the self-cleavage is 0.284.

As for C21U C24U, the self-cleavage was 0.0287.

In the case of C21U C75U, the self-cleavage came to 0.0248.

In the case of C21U C75G, the self-cleavage was 0.151.

Consider C21U C75A, for which the self-cleavage came to 0.0739.

With C21U G55U, the self-cleavage turned out to be 0.17.

As to C21U U65A, the self-cleavage was found to be 0.293.

Turning to C22U A51U, the self-cleavage came to 0.708.

Take C22U A56U: the self-cleavage was 0.776.

As to C22U A56C, the self-cleavage amounted to 0.525.

Take C22U A71G: the self-cleavage was determined as 0.506.

As for C22U A71U, the self-cleavage is 0.587.

With C21U G59U, the self-cleavage was 0.288.

With C21U G59C, the self-cleavage came to 0.292.

Turning to C21G U69C, the self-cleavage is 0.104.

As to C22G C85A, the self-cleavage turned out to be 0.

Consider C22G C85U, for which the self-cleavage stood at 0.0845.

In the case of C22G A70U, the self-cleavage worked out at 0.173.

Turning to C22G A70G, the self-cleavage worked out at 0.185.

For C22A C44G, the self-cleavage is 0.0489.

Take C22A C44A: the self-cleavage came to 0.151.

Turning to C21U C49A, the self-cleavage was 0.291.

C22G A78G: the self-cleavage turned out to be 0.141.

C22G A78C: the self-cleavage amounted to 0.131.

Consider C22G U69G, for which the self-cleavage is 0.108.

As for C22A G68C, the self-cleavage worked out at 0.22.

C22A G68U: the self-cleavage is 0.212.

Take C22A G52A: the self-cleavage is 0.292.

For C22A G52U, the self-cleavage is 0.32.

Consider C22A G50U, for which the self-cleavage was determined as 0.293.

On to C22A G50C, for which the self-cleavage amounted to 0.354.

For the variant C22G G28C, the self-cleavage came out at 0.
